In IntAct's records for PubMed 35512704:

B1: Mothers against decapentaplegic homolog 4 (Homo sapiens), Q13485 (parent)
chain: MDNMSITNTPTSNDACLSIVHSLMCHRQGGESETFAKRAIESLVKKLKEKKDELDSLITAITTNGAHPSKCVTIQRTLDGRLQVAGRKGFPHVIYARLWRWPDLHKNELKHVKYCQYAFDLKCDSVCVNPYHYERVVSPGIDLSGLTLQSNAPSSMMVKDEYVHDFEGQPSLSTEGHSIQTIQHPPSNRASTETYSTPALLAPSESNATSTANFPNIPVASTSQPASILGGSHSEGLLQIASGPQPGQQQNGFTGQPATYHHNSTTTWTGSRTAPYTPNLPHHQNGHLQHHPPMPPHPGHYWPVHNELAFQPPISNHPAPEYWCSIAYFEMDVQVGETFKVPSSCPIVTVDGYVDPSGGDRFCLGQLSNVHRTEAIERARLHIGKGVQLECKGEGDVWVRCLSDHAVFVQSYYLDREAGRAPGDAVHKIYPSAYIKVFDLRQCHRQMQQQAATAQAAAAAQAAAVAGNIPGPGSVGGIAPAISLSAAAGIGVDDLRRLCILRMSFVKGWGPDYPRQSIKETPCWIEIHLHRALQLLDEVLHTMPIADPQPLD
partner: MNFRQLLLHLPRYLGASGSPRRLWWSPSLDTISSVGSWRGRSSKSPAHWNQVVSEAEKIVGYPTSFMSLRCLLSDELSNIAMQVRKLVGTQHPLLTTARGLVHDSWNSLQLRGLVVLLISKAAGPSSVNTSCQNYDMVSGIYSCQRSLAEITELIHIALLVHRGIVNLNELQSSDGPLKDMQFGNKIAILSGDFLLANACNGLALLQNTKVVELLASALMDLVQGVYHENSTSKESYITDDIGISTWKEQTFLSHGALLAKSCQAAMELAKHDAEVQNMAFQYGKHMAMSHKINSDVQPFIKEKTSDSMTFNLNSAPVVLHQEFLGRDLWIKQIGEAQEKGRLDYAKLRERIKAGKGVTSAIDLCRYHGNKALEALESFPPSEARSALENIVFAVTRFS
B2: Mothers against decapentaplegic homolog 4 (Homo sapiens), Q13485 (parent)
chain: B1 chain
partner: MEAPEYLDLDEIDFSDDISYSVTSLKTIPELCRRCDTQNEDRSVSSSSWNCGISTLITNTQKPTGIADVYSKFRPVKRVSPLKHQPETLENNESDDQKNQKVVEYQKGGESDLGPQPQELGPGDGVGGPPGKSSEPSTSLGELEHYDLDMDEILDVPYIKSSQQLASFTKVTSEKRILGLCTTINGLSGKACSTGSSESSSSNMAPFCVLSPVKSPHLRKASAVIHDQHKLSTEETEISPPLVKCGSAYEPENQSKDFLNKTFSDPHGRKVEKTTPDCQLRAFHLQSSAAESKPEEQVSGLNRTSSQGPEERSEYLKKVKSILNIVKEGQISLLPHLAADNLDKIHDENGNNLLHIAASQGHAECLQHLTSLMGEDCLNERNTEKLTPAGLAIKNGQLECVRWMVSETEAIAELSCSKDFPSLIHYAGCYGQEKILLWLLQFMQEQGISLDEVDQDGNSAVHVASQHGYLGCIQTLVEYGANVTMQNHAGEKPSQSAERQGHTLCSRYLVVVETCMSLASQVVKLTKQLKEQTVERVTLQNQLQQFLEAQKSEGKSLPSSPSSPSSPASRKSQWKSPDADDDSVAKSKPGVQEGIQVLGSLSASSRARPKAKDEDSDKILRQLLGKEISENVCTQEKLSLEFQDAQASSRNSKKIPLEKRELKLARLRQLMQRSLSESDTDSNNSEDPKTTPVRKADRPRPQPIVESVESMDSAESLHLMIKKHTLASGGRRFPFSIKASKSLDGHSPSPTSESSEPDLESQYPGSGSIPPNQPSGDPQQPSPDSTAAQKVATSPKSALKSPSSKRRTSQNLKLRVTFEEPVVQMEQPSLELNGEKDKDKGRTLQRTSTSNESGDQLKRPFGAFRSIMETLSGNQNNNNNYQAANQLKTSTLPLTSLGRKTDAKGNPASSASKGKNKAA
B3: Mothers against decapentaplegic homolog 4 (Homo sapiens), Q13485 (parent)
chain: B1 chain
partner: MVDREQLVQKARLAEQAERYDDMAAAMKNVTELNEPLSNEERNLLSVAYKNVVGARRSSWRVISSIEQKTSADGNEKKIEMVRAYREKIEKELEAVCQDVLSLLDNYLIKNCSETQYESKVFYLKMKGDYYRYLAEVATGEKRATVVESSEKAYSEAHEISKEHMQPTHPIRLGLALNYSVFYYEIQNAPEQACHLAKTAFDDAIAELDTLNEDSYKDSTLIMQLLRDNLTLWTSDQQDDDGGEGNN
B4: Mothers against decapentaplegic homolog 4 (Homo sapiens), Q13485 (parent)
chain: B1 chain
partner: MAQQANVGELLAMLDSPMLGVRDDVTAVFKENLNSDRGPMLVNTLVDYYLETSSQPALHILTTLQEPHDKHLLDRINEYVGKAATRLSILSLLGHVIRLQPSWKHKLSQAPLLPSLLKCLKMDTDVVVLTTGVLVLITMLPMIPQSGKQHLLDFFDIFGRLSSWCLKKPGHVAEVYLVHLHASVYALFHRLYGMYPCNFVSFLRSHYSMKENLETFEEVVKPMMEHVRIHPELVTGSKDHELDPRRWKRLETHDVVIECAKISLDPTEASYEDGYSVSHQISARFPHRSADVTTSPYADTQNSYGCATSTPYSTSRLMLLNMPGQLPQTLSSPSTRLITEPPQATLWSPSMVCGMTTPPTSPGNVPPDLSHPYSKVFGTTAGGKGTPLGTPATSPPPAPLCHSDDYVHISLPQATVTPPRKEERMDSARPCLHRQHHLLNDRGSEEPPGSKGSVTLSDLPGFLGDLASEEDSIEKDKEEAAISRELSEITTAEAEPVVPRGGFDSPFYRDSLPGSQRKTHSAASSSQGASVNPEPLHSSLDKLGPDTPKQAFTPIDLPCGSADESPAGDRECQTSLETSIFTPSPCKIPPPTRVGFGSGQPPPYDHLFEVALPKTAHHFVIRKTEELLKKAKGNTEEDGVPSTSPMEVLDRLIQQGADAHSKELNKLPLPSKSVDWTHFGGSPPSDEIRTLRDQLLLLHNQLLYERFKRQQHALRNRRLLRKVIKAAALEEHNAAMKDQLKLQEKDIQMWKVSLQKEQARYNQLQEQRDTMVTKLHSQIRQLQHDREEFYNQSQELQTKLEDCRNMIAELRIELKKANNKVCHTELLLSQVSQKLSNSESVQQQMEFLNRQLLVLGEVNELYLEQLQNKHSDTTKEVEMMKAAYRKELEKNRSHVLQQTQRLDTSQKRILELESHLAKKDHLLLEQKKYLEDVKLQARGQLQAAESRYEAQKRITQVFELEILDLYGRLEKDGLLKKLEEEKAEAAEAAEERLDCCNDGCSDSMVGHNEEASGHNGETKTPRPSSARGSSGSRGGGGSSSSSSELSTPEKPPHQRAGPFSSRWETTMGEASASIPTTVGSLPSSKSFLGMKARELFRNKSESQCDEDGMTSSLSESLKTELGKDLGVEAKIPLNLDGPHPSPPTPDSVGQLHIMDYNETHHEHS

Variants of: B1
Details: with dlp1_human PDSS2, Q86YH6
In the case of G386D, the “effect of a mutation on the interaction” value is reported as “with no effect”.

Variants of: B2
Details: with sncap_human SNCAIP
For D351H, the “effect of a mutation on the interaction” value was “with no effect”.

Variants of: B2
Details: with sncap_human SNCAIP
Remark: another data set of the same source
R361C was tested, and the “effect of a mutation on the interaction” value was “with no effect”.

Variants of: B2
Details: with sncap_human SNCAIP
Remark: another data set of the same source
With R361H the “effect of a mutation on the interaction” value was “with no effect”.

Variants of: B2
Details: with sncap_human SNCAIP
Remark: another data set of the same source
For G386D, the “effect of a mutation on the interaction” value was “with no effect”.

Variants of: B3
Details: with 1433g_human YWHAG
In the case of R361C, the “effect of a mutation on the interaction” value is reported as “with no effect”.

Variants of: B3
Details: with 1433g_human YWHAG
Remark: another data set of the same source
For D351H, the “effect of a mutation on the interaction” value was “with no effect”.

Variants of: B4
Details: with tsc1_human TSC1, Q92574
In the case of R361C, the “effect of a mutation on the interaction” value is reported as “with no effect”.

Variants of: B4
Details: with tsc1_human TSC1, Q92574
Remark: another data set of the same source
For R361H, the “effect of a mutation on the interaction” value was “with no effect”.

Variants of: B4
Details: with tsc1_human TSC1, Q92574
Remark: another data set of the same source
With G386D the “effect of a mutation on the interaction” value was “with no effect”.

Variants of: B4
Details: with tsc1_human TSC1, Q92574
Remark: another data set of the same source
With D351H the “effect of a mutation on the interaction” value was “with no effect”.
